Data reported in patent US6541220 (GENERAL HOSPITAL, dated 2003).
No end group written: not given here.

T1: zebrafish PTH1R receptor, clone zPTH1R#25 (longer 5' UT, 391 bp), transiently expressed in COS-7 cells (zebrafish (Danio rerio))
T1 construct: only the 5' UT differs; also called zPPR1#25
T1 chain: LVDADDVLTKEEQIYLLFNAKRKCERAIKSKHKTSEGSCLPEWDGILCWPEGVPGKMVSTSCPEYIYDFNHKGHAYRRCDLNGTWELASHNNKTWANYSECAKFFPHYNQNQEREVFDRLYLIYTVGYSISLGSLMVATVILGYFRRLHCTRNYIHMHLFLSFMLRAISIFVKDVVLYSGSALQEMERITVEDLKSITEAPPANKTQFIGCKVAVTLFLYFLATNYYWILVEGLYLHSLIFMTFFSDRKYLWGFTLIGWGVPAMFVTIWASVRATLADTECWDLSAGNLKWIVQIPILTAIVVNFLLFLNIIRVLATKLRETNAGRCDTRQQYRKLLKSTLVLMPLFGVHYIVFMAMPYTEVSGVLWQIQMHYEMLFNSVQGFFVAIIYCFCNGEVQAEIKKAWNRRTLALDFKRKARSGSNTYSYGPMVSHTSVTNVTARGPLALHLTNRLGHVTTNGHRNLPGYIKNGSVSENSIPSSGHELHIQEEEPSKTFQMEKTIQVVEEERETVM

T2: zebrafish PTH1R receptor, clone zPTH1R#29 (shorter 5' UT, 149 bp), transiently expressed in COS-7 cells (zebrafish (Danio rerio))
T2 construct: Full-length cDNA expressed on intact COS-7 cells; also called zPPR1#29; zPTH1R(FL)/pcDNAI/Amp
T2 chain: T1 chain

T3: zebrafish PTH3R receptor, transiently expressed in COS-7 cells (zebrafish (Danio rerio))
T3 construct: Full-length cDNA expressed on intact COS-7 cells; also called zPTH3R; zPPR3
T3 chain: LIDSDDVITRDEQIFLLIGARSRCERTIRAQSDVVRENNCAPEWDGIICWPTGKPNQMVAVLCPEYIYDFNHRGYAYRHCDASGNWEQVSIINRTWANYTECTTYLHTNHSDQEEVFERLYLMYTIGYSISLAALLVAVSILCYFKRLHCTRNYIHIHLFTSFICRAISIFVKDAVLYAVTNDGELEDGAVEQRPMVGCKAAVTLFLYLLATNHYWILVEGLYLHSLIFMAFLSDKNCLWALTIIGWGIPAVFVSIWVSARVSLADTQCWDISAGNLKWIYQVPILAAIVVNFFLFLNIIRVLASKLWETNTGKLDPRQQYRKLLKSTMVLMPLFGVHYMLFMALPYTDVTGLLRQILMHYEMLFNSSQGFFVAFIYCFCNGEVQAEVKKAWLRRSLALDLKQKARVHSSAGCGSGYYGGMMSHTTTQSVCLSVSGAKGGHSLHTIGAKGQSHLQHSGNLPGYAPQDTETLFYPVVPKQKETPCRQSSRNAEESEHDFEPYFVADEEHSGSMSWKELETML

B1: 125I-labeled [Nle8,21,Tyr34]rPTH-(1-34)amide (peptide)
peptide: AVSEIQLXHNLGKHLASVERXQWLRKKLQDVHNY
modifications: Nle at 8 and 21; C-terminal amide; 125I-labeled
notes: Synthetic analog of rat PTH(1-34), used as radioligand
B2: [Tyr34]hPTH(1-34)amide (peptide)
peptide: SVSEIQLMHNLGKHLNSMERVEWLRKKLQDVHNY-NH2
notes: Synthetic analog of human PTH(1-34) with Tyr at 34

Key:
[1] = target: T1, zebrafish PTH1R receptor, clone …; assay: radioligand binding on COS-7 cells expressing the receptor
Experimental: (§1) Plasmid DNAs encoding the two full length zPTH1Rs (#25 and #29) and the zPTH3R were transiently expressed in COS-7 cells. COS-7 African green monkey kidney cells (approximately 200,000 cells/well in a 24-well plate) were cultured and transfected with plasmid DNA (200 ng/well) as described (Rubin et al., (1998)). After transfection, cells were cultured for 72 hrs at 37° with daily exchanges of medium, followed by an additional 24 hrs at 33° (Gardella et al., (1997)) until they were functionally evaluated after 96 hrs.
(§2) Peptides were synthesized by the MGH polymer core facility as described (Gardella et al., (1996)). Specific binding was calculated by subtracting radioligand binding in the presence of excess unlabeled peptide from the total binding. All points represent mean±S.E.M. of two to three replicates from two or more independent experiments.

[2] = target: T2, zebrafish PTH1R receptor, clone …; assay: as above
Experimental: as §1, §2

[3] = target: T3, zebrafish PTH3R receptor, transiently …; assay: as above
Experimental: as §1, §2

[4] = target: T1, zebrafish PTH1R receptor, clone …; assay: cell-based or functional assay
[5] = target: T2, zebrafish PTH1R receptor, clone …; assay: cell-based or functional assay
[6] = target: T3, zebrafish PTH3R receptor, transiently …; assay: cell-based or functional assay
[7] = target: T2, zebrafish PTH1R receptor, clone …; assay: cell-based or functional assay
[8] = target: T1, zebrafish PTH1R receptor, clone …; assay: competitive radioligand binding on intact COS-7 cells expressing the receptor, room temperature; unlabeled hPTH, radioligand not clearly stated (125I-rPTH or 125I-PTHrP)
Experimental: as §2
(§3) Table 3. Binding and cAMP Signaling Properties of PTH and PTHrP Analogs on the zPTH1R and the zPTH3R Competitive binding and cAMP stimulation assays were performed at room temperature with intact COS-7 cells that expressed either the zPTH1R or the zPTH3R, as described in Materials and Methods. […] Values are the mean±SEM of at least three independent transfections. ND, not determined.

[9] = target: T2, zebrafish PTH1R receptor, clone …; assay: as above
Experimental: as §2, §3

[10] = target: T3, zebrafish PTH3R receptor, transiently …; assay: as above
Experimental: as §2, §3

Binder | binding result [1] | binding result [2] | binding result [3] | cAMP EC50 [4] [nM] | cAMP Maximum [4] [pmol/well] | cAMP EC50 [5] [nM] | cAMP Maximum [5] [pmol/well] | cAMP EC50 [6] [nM] | cAMP Maximum [6] [pmol/well] | IP accumulation (total inositol phosphates, 10^-6 M ligand) [7] [fold] | IC50 [8] [nM] | IC50 [9] [nM] | IC50 [10] [nM]
B1 | binds | binds | binds | – | – | – | – | – | – | – | – | – | –
B2 | – | – | – | ~3 | 90.4 | 0.8 | 106 | 5.98 | 227 | 2 | ~3 | ~3 | ~100
